Assay [1] addresses Angiopoietin-like protein 4 (ANGPTL4), recombinant V5-his tagged secreted product (UniProt Q9BY76). Description: SPR (BiaCore) low resolution, mAb captured on goat anti-human surface, ANGPTL4 at 292 nM, 25 C. Background: Surface plasmon resonance follows binding to a sensor surface in real time, without labels.
Assay [2] shares this target. Description: SPR (BiaCore 2000) medium resolution, mAb captured on goat anti-human surface, ANGPTL4 6-198 nM (593 nM left out of the fit), 1:1 model with mass transport.

B1: anti-ANGPTL4 monoclonal antibody 1.3.1 (antibody, part only; not given: light chain, human IgG2, V domains shown, part only)
VH: EVQLVESGGGLIQPGGSLRLSCAASGFTVSTNYMSWVRQAPGKGLDWVSIIYSDDNTYYADSVKGRFTISRDNSKNTLYLQMNSLRAEDSAVYYCAGTGTTDYYYGLDVWGLGTTVTVSSA
The term Kd denotes the concentration at which binding is half-saturated. Usually koff stands for a measure of how fast the partners let go of each other. A word on the kon: it is the rate constant with which the complex forms. On to B1, for which, in assay [1], the Kd worked out at 15 nM, the koff is 0.00071 s⁻¹ and the kon stood at 49000 M⁻¹ s⁻¹.

B2: anti-ANGPTL4 monoclonal antibody 1.10.2 (antibody, human IgG2, V domains shown)
VH: QVQLVQSGAEVKKPGASVKDSCKASGFTFTSYGISWVRQAPGQGLEWMGWISAYNGNKNYAQKLQGRVTMTTDTSTSTAYMELRSLRSDDTAVYYCARDDCSRASCSYYYGMDVWGQGTAVTVSS
VL: DIVMTQTPLSLAVTPGQPASISCKSSQSLLHSDRKTYLYWYLQKPGQPPQLLIYEVSNRFSGVPDRFSGSGSGTDFTLKISRVEAEDVGVYYCMQSIQLPWTFGQGTKVEIKR
Turning to B2, in assay [1], the dissociation constant Kd turned out to be 11 nM, the koff was 0.00068 s⁻¹ and the kon is 63000 M⁻¹ s⁻¹.

B3: anti-ANGPTL4 monoclonal antibody 1.7.3 (antibody, human IgG2, V domains shown)
VH: QVQLVESGGGVVQPGRSLRLSCAASGFTFSSYGIHWIRQAPGKGLEWVAVIWYDGSHKYYADSVKGRFTISRDNSKNTLYLQMNSLRAEDTAVYYCARDGITMVRGVLYYFYGMDVWGQGTTVTVSS
VL: DIQMTQSPSSLSASVGDRVTITCRASQGISNYLAWYQQKPGKVPKLLIYAASTLQSGVPSRFSGSGSGTDFTLTISSLQPEDFATYYCQEFNSAPLTFGGGTKVEIKR
With B3, in assay [1], the Kd is 16 nM, the koff came to 0.0011 s⁻¹ and the kon turned out to be 67000 M⁻¹ s⁻¹. For the same molecule, in assay [2], the Kd amounted to 7.9 nM, the koff came out at 0.000786 s⁻¹ and the kon was determined as 99800 M⁻¹ s⁻¹.

Values taken from patent US20140302055A1.
